Key:
[1] = molecular target: T1, dansylated calmodulin (D-CaM, 5-(dimethylamino)naphtalene-1-sulfonyl-calmodulin) (rat, UniProt P0DP29 1-149, dansyl (5-(dimethylamino)naphtalene-1-sulfonyl) label, residue not stated); experiment: other fluorescence titration; as a2 but with an excess of free Ca2+ (3.9 µM; 9.63 mM Ca2+ added to the Fluorescence buffer); apparent affinity (EC50); conditions: both partners purified
[2] = molecular target: T1, dansylated calmodulin (D-CaM, …); experiment: other fluorescence titration; D-CaM 12.5 nM in the cuvette, increasing concentrations of GST-fusion protein; no Ca2+ (EGTA 10 mM); Tris-HCl 25 mM pH 7.4, KCl 120 mM, NaCl 5 mM, MgCl2 2 mM; 25 °C; apparent affinity (EC50 of a Hill fit to the fluorescence enhancement); conditions: both partners purified

B1: GST-Kv7.2 AB (helices AB fused to GST) (domain or fragment)
chain: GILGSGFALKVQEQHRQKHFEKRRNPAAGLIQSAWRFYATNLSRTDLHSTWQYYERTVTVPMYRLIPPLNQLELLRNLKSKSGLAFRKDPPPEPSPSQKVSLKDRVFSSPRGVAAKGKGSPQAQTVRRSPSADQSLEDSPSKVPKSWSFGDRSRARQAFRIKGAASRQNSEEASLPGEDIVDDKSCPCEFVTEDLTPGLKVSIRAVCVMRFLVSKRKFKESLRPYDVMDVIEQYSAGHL
Q: B1 was tested. Which EC50 [1] did it give?
A: 27.1 nM

Q: And the EC50 [2]?
A: 11 nM
